Measured values as given in the supplement of paper PMC10126150.
± gives the standard deviation of the averaged measurements.

These sequences were tested on ATP (assay: switch fluorescence ratio, 500 uM ATP over buffer (Cy3 cluster intensity, sum of 5 cycles each) (fold (ratio)); higher = stronger signal-on switching upon ATP binding; sequences stand for … in TCGTCGGCAGCGTCAGATGTGTATAAGAGACAGTTTTTTTTTTTTTTTTTTTTTTTTT…TC). Conditions: aptamer strand: ATP DNA aptamer (quencher-CACCTGGGGGAGTATTGCGGAGGAAGG + anchor), 100 nM annealed; ATP concentration: 500 uM.
Procedure, shortened: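 Cy3-labelled switching-strand clusters on a modified Illumina MiSeq flow-cell were annealed to 100 nM quencher-labelled ATP aptamer, imaged in selection buffer, then imaged after 15 min with 500 uM ATP at 22 °C. Five buffer/ATP cycles ran, with NaOH stripping and re-annealing between them. The fluorescence ratio is summed target-cycle over summed buffer-cycle Cy3 intensity per cluster, averaged per switch-domain sequence. Clusters outside 100-1000 RFU were excluded.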
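Note: ATP exposure 15 min at 22 °C before imaging.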

Sequence	switch fluorescence ratio
TCCGCGTACG	2.75 ± 0.056
GGGGTTTGCA	0.978 ± 0.046
AATTGTACGG	1.04 ± 0.013
ATTTCTAATT	1.07 ± 0.15
AACTTACACG	1.2 ± 0.018
AGGGTCGGGA	0.9838 ± 0.0013
GGGCCTAGGA	1.028 ± 0.0069
ATTGAGCCTG	0.991 ± 0.022
GCTTTATGGG	0.98 ± 0.027
AAATGCACAC	1.107 ± 0.0021
CGTGTGTGGC	1.02 ± 0.0032
TTAAGTAGGG	1.01 ± 0.029
GCCCTGATGG	1 ± 0.035
ATTCTGTACG	1.05 ± 0.023
GGTTTTTCCG	1.03 ± 0.033
CCATGGATCA	0.9992 ± 0.0091
AAATACTTGG	1.04 ± 0.055
TTAACTATGG	1.016 ± 0.0066
TTATGTTACT	1.059 ± 0.0023
CACGGAAGGA	1.065 ± 0.0079
CCGGGGACCC	1.13 ± 0.08
TGAGGAGGGG	0.989 ± 0.048
GGCTGGGTGG	1.01 ± 0.053

Sequence	switch fluorescence ratio
TTTAGGTACG	1 ± 0.018
CTGATGTCGC	1.074 ± 0.0034
AGGACCGTTA	1 ± 0.031
TTATTGTGTG	1 ± 0.023
CAGTAGGCCA	1.01 ± 0.032
AGTACGGGGT	0.982 ± 0.031
AAGGCGTAG	0.984 ± 0.1
GCTAGTTGTA	0.9995 ± 0.0074
ATATGGCCGT	0.994 ± 0.023
GTTAAAGATT	1.001 ± 0.0083
TCTGAAATGG	1.04 ± 0.047
ACACAGTATT	1.0263 ± 0.00076
TTAAGTGCTG	1.02 ± 0.036
TGGAGTGCTT	0.983 ± 0.0022
TGTGGGAGGC	1.04 ± 0.018
AATGAGTGGG	1 ± 0.041
AGTATCATTT	0.952 ± 0.02
TTGGCATATC	1.89 ± 0.76
AGGGTATGTA	1 ± 0.015
AGTTAGTTTT	1 ± 0.017
TCTAGGGGGT	0.9766 ± 0.0071
AAGGTTACGT	1.022 ± 0.0072
CGTTGAGACC	0.995 ± 0.019

Sequence	switch fluorescence ratio
CCAATGGAGG	0.994 ± 0.034
GGATTGCAAG	0.998 ± 0.013
AAGTTTTTGC	1.01 ± 0.019
CTGGGGGGTT	0.994 ± 0.019
ATGGTTAAGG	0.9812 ± 0.0085
TGGCGGAAAG	0.977 ± 0.025
TCGATAGTTC	1.03 ± 0.028
GCGCTCAGAT	1.02 ± 0.028
TTAGTCGGAG	0.981 ± 0.01
TCATCATTCG	0.9668 ± 0.0052
ATGGATAAGG	1.01 ± 0.024
AAGTCTTTGG	0.9599 ± 0.0072
CTTTACTTCC	2.1 ± 0.024
AGAGTGATCT	0.98437 ± 0.00057
TGATTTGGGT	1.01 ± 0.021
TTTTGTGTGG	1.01 ± 0.026
TCGGTAGTTA	1.01 ± 0.047
GGTAATTTTG	0.996 ± 0.061
TTATATTTCG	1 ± 0.032
TTGTTTTGTC	0.975 ± 0.065
TTGTGTGTGG	0.976 ± 0.021
TGATGTGGCG	0.994 ± 0.041
TATTAAATTC	0.984 ± 0.039

Sequence	switch fluorescence ratio
TTTTTTAGAG	1.004 ± 0.0068
TTCAGATGAA	0.9987 ± 0.0015
TTGCCAAGTG	1.01 ± 0.02
TCCGGCAAGT	2.17 ± 0.13
CCGGGGGGTA	1.37 ± 0.017
ATTTCGGTGC	1.1 ± 0.17
GTCACGGGGG	1.026 ± 0.0027
AGAGGACTTT	1.001 ± 0.0029
AAATTGAGGC	0.96 ± 0.027
AAGGGGATAA	0.99 ± 0.045
TACGACCGTG	1.01 ± 0.046
GATTGGGGGG	1 ± 0.029
TCCGGGATAT	2.23 ± 0.98
ATTTGGGGTG	1.016 ± 0.0069
CAAGATCTGT	0.9925 ± 0.0031
TAGACAATTT	1 ± 0.00074
GGCTTTATGG	0.977 ± 0.024
CATTAGATGC	1.06 ± 0.056
TTTTATATCC	0.963 ± 0.028
CGGAGGATGC	1.31 ± 0.019
TTGCGAGGGG	0.9778 ± 0.006
TTTAATGGGT	1 ± 0.022
TGCGGGGGCA	1.02 ± 0.025

Sequence	switch fluorescence ratio
AGGCCACTCG	0.978 ± 0.0036
TAATGTTATG	1.03 ± 0.017
CTGGGTTCTC	0.989 ± 0.016
TCAATTTCGG	0.99882 ± 0.00079
CAATTGGGGG	0.9968 ± 0.0078
TTTGAGATAC	1.39 ± 0.38
ATATCAGACT	0.99 ± 0.015
ACTCGGCGGT	2.14 ± 1.7
CTTGCGGTTC	1.11 ± 0.05
CCAGGTCTAT	1.08 ± 0.018
TTTCGGCGCG	1.02 ± 0.038
GGGGTGTAGT	0.9854 ± 0.0053
TTTATGATTA	1.035 ± 0.005
TACGTGAATT	1.04 ± 0.05
ATAGTTTGCC	0.994 ± 0.043
AATTTGCTTT	0.986 ± 0.036
CGGGCCGGGT	0.976 ± 0.031
GCTTAACGTA	1.05 ± 0.044
GGGTTTACTT	0.99844 ± 0.00094
CTAGATGTGG	0.983 ± 0.059
GCGTTTGAAA	1.01 ± 0.013
GCAATTGGTC	1.25 ± 0.06
CATCATTGGG	0.993 ± 0.016

Sequence	switch fluorescence ratio
CGGGGGGTCG	1.04 ± 0.069
GGGGTCGTTG	0.995 ± 0.017
TTGCGGTTAG	1.012 ± 0.0017
TTCGTCTACA	0.98 ± 0.021
CTATTGTTTT	1.03 ± 0.079
GGGGTTCATG	0.9675 ± 0.006
GGGGTGCCTG	0.999 ± 0.039
GTGTTTGTGT	0.983 ± 0.028
TAAATTCCGA	1.07 ± 0.038
AAAACTGTCA	1.009 ± 0.0086
ATTCATTTTA	0.999 ± 0.034
AAGTTTTAAG	1 ± 0.021
CTAGAAGGGA	0.9965 ± 0.0049
CAAATGTTGG	0.983 ± 0.026
TAAAAGTAGT	1.03 ± 0.041
TGAGGGTTTG	1.02 ± 0.044
GCGGACGGGT	0.969 ± 0.019
TTGTCAGAGT	1.001 ± 0.0015
GATGGGGGGA	1.01 ± 0.029
ATTACCAGGT	1.27 ± 0.048
TTGAGGGGAG	1.01 ± 0.012
CCTTTTCGAG	1.037 ± 0.0025
ATCGTCTCGC	1.03 ± 0.05

Sequence	switch fluorescence ratio
CTGGGGGGCC	1.01 ± 0.038
TTATCGCAGA	1 ± 0.015
AGTGGGCGCA	1.04 ± 0.042
ATAGGCGAAA	0.986 ± 0.022
GCCGTCGTTG	1 ± 0.019
CTTGGGCCAC	1 ± 0.032
TTTTTTCCAC	1.01 ± 0.028
ATTTACGTAT	1.06 ± 0.044
AACTCGGTCC	1 ± 0.061
CTAAAGGTTT	1.004 ± 0.003
AGGGGACAAA	1 ± 0.035
TTTTATGGT	1.013 ± 0.0067
AAGTTTAGTC	1.03 ± 0.034
AATACTCGGG	1.07 ± 0.033
TTTCGGTGGC	0.99 ± 0.072
CGTACCGGGT	1.01 ± 0.022
TTTTCGTGCT	0.956 ± 0.05
CTATTAATGA	1.03 ± 0.057
ATAAGCTGGT	0.953 ± 0.021
